Data reported in patent US20240209089A1.
Substitutions are numbered along the chain they refer to.

B1: phage clone No. 20 (C20) (VHH)
VHH: QVQLVESGGGLVQPGGSLRLSCAASGSIFSINTMGWYRQAPGKQRELVATMHSTGSTNYADSVKGRFTISRDNAKKTVYLQMNSLEPDDTAVYYCHVDDTGWGTVDSWGQGTQVTVS
B2: phage clone No. 24 (C24) (VHH)
VHH: QVQLVESGGGLVQPGGSLRLSCAASGPIFSINTMGWYRQAPGKQRELVATMHSTGSTNYADSVKGRFTISRDNAKKTVYLQMNSLKPDDTAVYYCHVDDTGWGTVDSWGQGIQVTVSS
B3: phage clone No. 27 (C27) (VHH)
VHH: QLQLVESGGGLVQPGGSLRLSCVVSGSIFAINTMGWYRQAPGKQRELVATMHSGGSTNYADSVKGRFTISRDAAPKTVYLQMNSLKPADTAVYYCHADDSGWGTVDSWGQGIQVTVSS
B4: phage clone No. 29 (C29) (VHH)
VHH: QVQLVESGGGLVQAGGSLRLSCVASGFTSDDYVIGWFRQAPGKEREGVSCISSSDGTTNYADSVKGRFTISSDNAKNTVYLQMNSLKPEDTAVYYCAADPMRVCPYSGTYYGILGFGTSGQGTQVTVSS
B5: phage clone No. 30 (C30) (VHH)
VHH: B2 VHH with A23V, P27S, S30A, T50D, T77K, T100R, I112T
B6: phage clone No. 37 (C37) (VHH)
VHH: QLQLVESGGGLVQAGGSLRLSCAASGLTFEDYAIGWFRQAPGKEREGISCIRIYDGNTYSAESVKGRFTISSDNAKNQVYLQINTLKPEDTAVYYCAAGSYYSCSVYPDYDMDYWGKGTLVTVSS
B7: phage clone No. 42 (C42) (VHH)
VHH: B6 VHH with L2V
B8: phage clone No. 45 (C45) (VHH)
VHH: B2 VHH with A40V, I112T
B9: phage clone No. 46 (C46) (VHH)
VHH: QVQLVESGGGLVQAGGSLRLSCAASGVTFDDLAIGWFRQVPGKGREGVSTIGTSDGTAYYADSVKGRFTISSDNAKNTVYLQMNSLKPEDTAVYYCAVDLDYGLGSLLPMGYDYWGQGTQVTVSS
B10: phage clone No. 53 (S5) (VHH)
VHH: QVQLVESGGGLVQAGGSLRVSCAASGGTFSSTAMGWFRQAPGKEREFVAAISWSGGYTYYADSVRGRFTISRDNALNTVSLQMNSLKPEDTAVYYCAADISGLDTVAAGIFTEPNIDYWGKGTLVTVSS
B11: phage clone No. 54 (S6) (VHH)
VHH: QVQLVESGGGLVQPGGSLRLSCAVSGTIFSINTMGWYRQVPGKQRELVATITSSGSTKYADSVKGRFTVSRDNAKRTVFLQMDSLKPEDTAVYYCHANDVGWGTVNAWGQGTLVTVSS
B12: phage clone No. 55 (S7) (VHH)
VHH: QLQLVESGGGLVQPGGSLRLSCAASGSIFSINGMGWYRQAPGKQREAVAVITSGGKIDYLDSVKGRFTISRDSAKNTVALQMNSLKPEDTAVYYCNAYGDVRRGEVRWGQGTQVTVSS
B13: phage clone No. 61 (S13) (VHH)
VHH: B3 VHH with G54Y, A73N, P75K, S100T, I112T
B14: phage clone No. 66 (S18) (VHH)
VHH: QLQLVESGGGLVQPGGSLRLSCAASGSIFSINTMGWYRQAPGKQRELVATMTSHGSTNYADSVKGRFTISRDNSKNTVYLQMNSLKLQDTAVYYCNANDMGWGTVDAWGQGTLVTVSS
B15: phage clone No. 70 (S22) (VHH)
VHH: B2 VHH with V2L, P27S, T100M, I112T
B16: phage clone No. 71 (S23) (VHH)
VHH: B12 VHH with L2V, A47L, V50A, I57T, R102Q
B17: phage clone No. 77 (S29) (VHH)
VHH: QLQLVESGGGLVQPGGSLRLSCTASGIIFSINTMGWYRQAPGKQRELVADISSFGSTNYADSVKGRFTISRDNAKNSVYLQMNSLKPEDTAVYYCNAHDKGWGTVDSWGQGTQVTVSS
B18: phage clone No. 2 (C2) (VHH)
VHH: B6 VHH with L2V, A14P, L27F, F29L, E30D, D31Y

What follows are binders tested against Fc protein (assay: phage ELISA on coated Fc protein).
B1 showed an OD450 of 0.133. With B2 the OD450 was 0.083. In the case of B3, the OD450 is reported as 0.084. For B4, the OD450 was 0.115. In the case of B5, the OD450 is reported as 0.103. B6 gave an OD450 of 0.11. For B7, the OD450 was 0.111. B8 gave an OD450 of 0.115. B9 gave an OD450 of 0.081. B10 was tested, and the OD450 was 0.068. With B11 the OD450 was 0.058. Binder B12 has an OD450 of 0.059. In the case of B13, the OD450 is reported as 0.094. B14 gave an OD450 of 0.081. Work on B15 yielded an OD450 of 0.059. Binder B16 has an OD450 of 0.093. In the case of B17, the OD450 is reported as 0.08. With B18 the OD450 was 0.149.
